# Experimental data as given in US20240408194A1, “DNA ORIGAMI SUBUNIT VACCINE FOR PREVENTION OF SARS-CoV-2 VARIANT INFECTION” (priority 2021, published 2024).
# B1: DNA-LCB (designed binder)
# chain: CDKEWILQKIYEIMRLLDELGHAEASMRVSDLIYEFMKKGDERLLEEAERLLEEVER
# modifications: not checked
# Key:
# [1] = target: T1, SARS-CoV-2 spike protein receptor binding domain (RBD), monomeric (SARS-CoV-2), P0DTC2
# [2] = target: T1, SARS-CoV-2 spike protein receptor …; remark: listed apart in the source
binder,measurement,setting,value
B1,Fluorescence (average),[1],2.08e+07
same,protein coverage,[2],71.6%
